Measured values as given in PMC5037138, “A Novel Class of Plant Type III Polyketide Synthase Involved in Orsellinic Acid Biosynthesis from Rhododendron dauricum” (Frontiers in Plant Science, 2016).

B1: CHS (R. dauricum chalcone synthase) (Rhododendron dauricum) (protein)
chain: MVTVEDVRKAQRAEGPATVMAIGTATPPNCVDQSTYPDFYFRITNSEHKAELKEKFQRMCDKSMIKKRYMYLTEEILKENPSVCEYMAPSLDARQDMVVVEVPKLGKEAATKAIKEWGQPKSKITHLVFCTTSGVDMPGADYQLTKLLGLRPSVKRLMMYQQGCFAGGTVLRLAKDLAENNKGARVLVVCSEITAVTFRGPSDTHLDSLVGQALFGDGAAAIIVGADPVPEVEKPLFELVSAAQTILPDSDGAIDGHLREVGLTFHLLKDVPGLISKNIEKALTEAFQPLGISDWNSIFWIAHPGGPAILDQVELKLSLKPEKLRATRHVLSEYGNMSSACVLFILDEMRRKSAEEGLKTTGEGLEWGVLFGFGPGLTVETVVLHSLCT
notes: full length, 389 residues (42,599 Da), N-terminal His6 tag kept (pQE80L), E. coli M15; ~45 kDa subunit; homodimer ~94 kDa
B2: ORS (orcinol synthase) (Rhododendron dauricum) (protein)
chain: MALVNHRENVKGRAQILAIGTANPKNCFRQVDYPDYYFRVTKSDHLIDLKAKFKRMCEKSMIEKRYMHVNEEILEQNPSMNHGGEKMVSSLDVRLDMEIMEIPKLAAEAATKAMDEWGQPKSRITHLVFHSTLGTVMPGVDYELIKLLGLNPSVKRFMLYHLGCYGGGTVLRLAKDLAENNPGSRVLVLCCEMMPSGFHGPPSLQHAHLDILTGHAIFGDGAGAVIVGCVDPSGGTNGVVERGVRRYEQPLFEIHSAYQTVLPDSKDAVGGRLREAGLIYYLSKRLSNDVSGKIDECCLAEAFSAAIKDNFEDWNSLFWIVHPAGRPILDKLDAKLGLNKEKLRASRNVLRDYGNMWSSSVLFVLDEMRKGSIAQRKTTTGEGFEWGVLLGFGPGVTVETVVLRSVPTAKLK
notes: full length, 412 residues (45,707 Da), N-terminal His6 tag kept (pQE80L), E. coli M15; ~48 kDa subunit; homodimer ~101 kDa

What was measured:
Test in all cases: HPLC product quantification, Hanes-Woolf
Format in all cases: biochemical, Rhododendron dauricum
[1] = substrate: CC(C)(COP(=O)(O)OP(=O)(O)OC[C@H]1O[C@@H](n2cnc3c(N)ncnc32)[C@H](O)[C@@H]1OP(=O)(O)O)[C@@H](O)C(=O)NCCC(=O)NCCSC(=O)/C=C/c1ccc(O)cc1; conditions: naringenin formation, 200 uM malonyl-CoA, pH 7.0, 30 C
[2] = substrate: CCCC(=O)SCCNC(=O)CCNC(=O)[C@H](O)C(C)(C)COP(=O)(O)OP(=O)(O)OC[C@H]1O[C@@H](n2cnc3c(N)ncnc32)[C@H](O)[C@@H]1OP(=O)(O)O; conditions: 4-hydroxy-6-propyl-2-pyrone formation, 200 uM malonyl-CoA, pH 7.0, 30 C
From the text: (§1) HPLC product quantification, Hanes-Woolf on ORS (orcinol synthase)

[3] = substrate: CC(=O)SCCNC(=O)CCNC(=O)[C@H](O)C(C)(C)COP(=O)(O)OP(=O)(O)OC[C@H]1O[C@@H](n2cnc3c(N)ncnc32)[C@H](O)[C@@H]1OP(=O)(O)O; conditions: orcinol formation (major product), 200 uM malonyl-CoA, 100 mM potassium phosphate pH 7.0, 30 C, no OAC
From the text: as §1

[4] = substrate: CCCCCC(=O)SCCNC(=O)CCNC(=O)[C@H](O)C(C)(C)COP(=O)(O)OP(=O)(O)OC[C@H]1O[C@@H](n2cnc3c(N)ncnc32)[C@H](O)[C@@H]1OP(=O)(O)O; conditions: 4-hydroxy-6-pentyl-2-pyrone formation, 200 uM malonyl-CoA, pH 7.0, 30 C
From the text: as §1

Protein | Km [1] [µM] | kcat [1] [s⁻¹] | Km [2] [µM] | kcat [2] [s⁻¹] | Km [3] [µM] | kcat [3] [s⁻¹] | Km [4] [µM] | kcat [4] [s⁻¹]
B1 | 8.15 | 0.0089 |  |  |  |  |  | 
B2 |  |  | 17.1 | 0.00675 | 9.98 | 0.0243 | 26.4 | 0.00482
